Measurements published in US10919943B2, “Mutant proteins enabling agrochemical control of plant gene expression” (The Regents of the University of California, priority 2016, dated 2021).
Where a chain is given by its changes, count along the chain named. Numbers in names are those of the source.

B1: F159W: PYR1 mutant (protein, UniProt O49686 1-191, looked up, variant F159W)
Abscisic acid receptor PYR1: MPSELTPEERSELKNSIAEFHTYQLDPGSCSSLHAQRIHAPPELVWSIVRRFDKPQTYKHFIKSCSVEQNFEMRVGCTRDVIVISGLPANTSTERLDILDDERRVTGFSIIGGEHRLTNYKSVTTVHRFEKENRIWTVVLESYVVDMPEGNSEDDTRMWADTVVKLNLQKLATVAEAMARNSGDGSGSQVT
B2: F159Y: PYR1 mutant (protein, UniProt O49686 1-191, looked up, variant F159Y)
Abscisic acid receptor PYR1: B1 Abscisic acid receptor PYR1 with W159Y
B3: F159D: PYR1 mutant (protein, UniProt O49686 1-191, looked up, variant F159D)
Abscisic acid receptor PYR1: B1 Abscisic acid receptor PYR1 with W159D
B4: F159E: PYR1 mutant (protein, UniProt O49686 1-191, looked up, variant F159E)
Abscisic acid receptor PYR1: B1 Abscisic acid receptor PYR1 with W159E
B5: F159G: PYR1 mutant (protein, UniProt O49686 1-191, looked up, variant F159G)
Abscisic acid receptor PYR1: B1 Abscisic acid receptor PYR1 with W159G
B6: F159H: PYR1 mutant (protein, UniProt O49686 1-191, looked up, variant F159H)
Abscisic acid receptor PYR1: B1 Abscisic acid receptor PYR1 with W159H
B7: F159K: PYR1 mutant (protein, UniProt O49686 1-191, looked up, variant F159K)
Abscisic acid receptor PYR1: B1 Abscisic acid receptor PYR1 with W159K
B8: T162P: PYR1 mutant (protein, UniProt O49686 1-191, looked up, variant T162P)
Abscisic acid receptor PYR1: B1 Abscisic acid receptor PYR1 with W159F, T162P
B9: T162E: PYR1 mutant (protein, UniProt O49686 1-191, looked up, variant T162E)
Abscisic acid receptor PYR1: B1 Abscisic acid receptor PYR1 with W159F, T162E
B10: T162F: PYR1 mutant (protein, UniProt O49686 1-191, looked up, variant T162F)
Abscisic acid receptor PYR1: B1 Abscisic acid receptor PYR1 with W159F, T162F
B11: K170P: PYR1 mutant (protein, UniProt O49686 1-191, looked up, variant K170P)
Abscisic acid receptor PYR1: B1 Abscisic acid receptor PYR1 with W159F, K170P
B12: F61N: PYR1 mutant (protein, UniProt O49686 1-191, looked up, variant F61N)
Abscisic acid receptor PYR1: B1 Abscisic acid receptor PYR1 with F61N, W159F
B13: F61P: PYR1 mutant (protein, UniProt O49686 1-191, looked up, variant F61P)
Abscisic acid receptor PYR1: B1 Abscisic acid receptor PYR1 with F61P, W159F
B14: F61Q: PYR1 mutant (protein, UniProt O49686 1-191, looked up, variant F61Q)
Abscisic acid receptor PYR1: B1 Abscisic acid receptor PYR1 with F61Q, W159F
B15: F61R: PYR1 mutant (protein, UniProt O49686 1-191, looked up, variant F61R)
Abscisic acid receptor PYR1: B1 Abscisic acid receptor PYR1 with F61R, W159F
B16: F61S: PYR1 mutant (protein, UniProt O49686 1-191, looked up, variant F61S)
Abscisic acid receptor PYR1: B1 Abscisic acid receptor PYR1 with F61S, W159F
B17: F61D: PYR1 mutant (protein, UniProt O49686 1-191, looked up, variant F61D)
Abscisic acid receptor PYR1: B1 Abscisic acid receptor PYR1 with F61D, W159F
B18: F61E: PYR1 mutant (protein, UniProt O49686 1-191, looked up, variant F61E)
Abscisic acid receptor PYR1: B1 Abscisic acid receptor PYR1 with F61E, W159F
B19: F61G: PYR1 mutant (protein, UniProt O49686 1-191, looked up, variant F61G)
Abscisic acid receptor PYR1: B1 Abscisic acid receptor PYR1 with F61G, W159F
B20: F61H: PYR1 mutant (protein, UniProt O49686 1-191, looked up, variant F61H)
Abscisic acid receptor PYR1: B1 Abscisic acid receptor PYR1 with F61H, W159F
B21: F61I: PYR1 mutant (protein, UniProt O49686 1-191, looked up, variant F61I)
Abscisic acid receptor PYR1: B1 Abscisic acid receptor PYR1 with F61I, W159F
B22: F61K: PYR1 mutant (protein, listed as Arabidopsis thaliana)
chain: B1 Abscisic acid receptor PYR1 with F61K, W159F
B23: I62R: PYR1 mutant (protein, UniProt O49686 1-191, looked up, variant I62R)
Abscisic acid receptor PYR1: B1 Abscisic acid receptor PYR1 with I62R, W159F
B24: I62W: PYR1 mutant (protein, UniProt O49686 1-191, looked up, variant I62W)
Abscisic acid receptor PYR1: B1 Abscisic acid receptor PYR1 with I62W, W159F
B25: I62Y: PYR1 mutant (protein, UniProt O49686 1-191, looked up, variant I62Y)
Abscisic acid receptor PYR1: B1 Abscisic acid receptor PYR1 with I62Y, W159F
B26: I62D: PYR1 mutant (protein, UniProt O49686 1-191, looked up, variant I62D)
Abscisic acid receptor PYR1: B1 Abscisic acid receptor PYR1 with I62D, W159F
B27: I62E: PYR1 mutant (protein, UniProt O49686 1-191, looked up, variant I62E)
Abscisic acid receptor PYR1: B1 Abscisic acid receptor PYR1 with I62E, W159F
B28: I62G: PYR1 mutant (protein, UniProt O49686 1-191, looked up, variant I62G)
Abscisic acid receptor PYR1: B1 Abscisic acid receptor PYR1 with I62G, W159F
B29: I62K: PYR1 mutant (protein, UniProt O49686 1-191, looked up, variant I62K)
Abscisic acid receptor PYR1: B1 Abscisic acid receptor PYR1 with I62K, W159F
B30: K63P: PYR1 mutant (protein, UniProt O49686 1-191, looked up, variant K63P)
Abscisic acid receptor PYR1: B1 Abscisic acid receptor PYR1 with K63P, W159F
B31: I84L: PYR1 mutant (protein, UniProt O49686 1-191, looked up, variant I84L)
Abscisic acid receptor PYR1: B1 Abscisic acid receptor PYR1 with I84L, W159F
B32: S85A: PYR1 mutant (protein, UniProt O49686 1-191, looked up, variant S85A)
Abscisic acid receptor PYR1: B1 Abscisic acid receptor PYR1 with S85A, W159F
B33: S85L: PYR1 mutant (protein, UniProt O49686 1-191, looked up, variant S85L)
Abscisic acid receptor PYR1: B1 Abscisic acid receptor PYR1 with S85L, W159F
B34: S85M: PYR1 mutant (protein, UniProt O49686 1-191, looked up, variant S85M)
Abscisic acid receptor PYR1: B1 Abscisic acid receptor PYR1 with S85M, W159F
B35: S85N: PYR1 mutant (protein, UniProt O49686 1-191, looked up, variant S85N)
Abscisic acid receptor PYR1: B1 Abscisic acid receptor PYR1 with S85N, W159F
B36: S85P: PYR1 mutant (protein, listed as Arabidopsis thaliana)
chain: B1 Abscisic acid receptor PYR1 with S85P, W159F
B37: S85Q: PYR1 mutant (protein, UniProt O49686 1-191, looked up, variant S85Q)
Abscisic acid receptor PYR1: B1 Abscisic acid receptor PYR1 with S85Q, W159F
B38: S85R: PYR1 mutant (protein, UniProt O49686 1-191, looked up, variant S85R)
Abscisic acid receptor PYR1: B1 Abscisic acid receptor PYR1 with S85R, W159F
B39: S85V: PYR1 mutant (protein, UniProt O49686 1-191, looked up, variant S85V)
Abscisic acid receptor PYR1: B1 Abscisic acid receptor PYR1 with S85V, W159F
B40: S85W: PYR1 mutant (protein, UniProt O49686 1-191, looked up, variant S85W)
Abscisic acid receptor PYR1: B1 Abscisic acid receptor PYR1 with S85W, W159F
B41: S85C: PYR1 mutant (protein, UniProt O49686 1-191, looked up, variant S85C)
Abscisic acid receptor PYR1: B1 Abscisic acid receptor PYR1 with S85C, W159F
B42: S85Y: PYR1 mutant (protein, UniProt O49686 1-191, looked up, variant S85Y)
Abscisic acid receptor PYR1: B1 Abscisic acid receptor PYR1 with S85Y, W159F
B43: S85D: PYR1 mutant (protein, UniProt O49686 1-191, looked up, variant S85D)
Abscisic acid receptor PYR1: B1 Abscisic acid receptor PYR1 with S85D, W159F
B44: S85E: PYR1 mutant (protein, UniProt O49686 1-191, looked up, variant S85E)
Abscisic acid receptor PYR1: B1 Abscisic acid receptor PYR1 with S85E, W159F
B45: S85F: PYR1 mutant (protein, UniProt O49686 1-191, looked up, variant S85F)
Abscisic acid receptor PYR1: B1 Abscisic acid receptor PYR1 with S85F, W159F

Test system: HAB1
Experiment: Yeast two hybrid of pBD-PYR1 site saturation mutants with pACT-HAB1 on 10 μM ABA, β-galactosidase staining
Assay type: cell-based, Arabidopsis
Set-up: key: x: Mutations in PYR1 that disrupt ABA-induced binding to PYR1 to HAB1
Details: S. cerevisiae Y190, 10 μM ABA; dead = lack of visible staining in comparison to wild type control
In short: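 Binding was read by β-galactosidase staining of chloroform-lysed colonies after 2 days at 30° C on SD (-Leu, -Trp) plates containing 10 μM (+)-ABA. Yeast strain Y190 carried the BD-PYR1 single-substitution mutants plus the AD-HAB1 fusion. Absence of staining versus the wild-type control defined "dead" mutants.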

Molecule | Mutations in PYR1 that disrupt ABA-induced binding to PYR1 to HAB1
B1 | x
B2 | x
B3 | x
B4 | x
B5 | x
B6 | x
B7 | x
B8 | x
B9 | x
B10 | x
B11 | x
B12 | x
B13 | x
B14 | x
B15 | x
B16 | x
B17 | x
B18 | x
B19 | x
B20 | x
B21 | x
B22 | x
B23 | x

Molecule | Mutations in PYR1 that disrupt ABA-induced binding to PYR1 to HAB1
B24 | x
B25 | x
B26 | x
B27 | x
B28 | x
B29 | x
B30 | x
B31 | x
B32 | x
B33 | x
B34 | x
B35 | x
B36 | x
B37 | x
B38 | x
B39 | x
B40 | x
B41 | x
B42 | x
B43 | x
B44 | x
B45 | x
